For this assay, the target named is Bacteriophage P23-77 small major capsid protein VP16, recombinant (bacteriophage P23-77). In words: SEC. On the technique in general: In gel filtration, larger molecules generally elute earlier.

The text below walks through data of publication PMC3919167.

For orientation: stoichiometry N means a count of units in the complex or per binding partner. As for “Bacteriophage P23-77 small major capsid protein VP16, recombinant (natural protein)”, the stoichiometry N is 2.
